In publication PMC7519299:

Target: ATP synthase subunit c (bovine), P32876
Conditions: remark: other sources report otherwise

- stoichiometry N: 8
B1: ATP synthase subunit c, P32876 62-136 (natural protein)
chain: DIDTAAKFIGAGAATVGVAGSGAGIGTVFGSLIIGYARNPSLKQQLFSYAILGFALSEAMGLFCLMVAFLILFAM
modifications: here or on the partner: trimethyllysine at position 43; trimethyllysine at position 43
